Results from patent US20260132182A1 (published 2026).
Starred links: 1 amine or outer side, 2 acyl side, 3 side chain; linkers in the order of their positions; H or OH if unused. Non-standard residues stand in square brackets, D forms with d. Groups on a side chain read outwards from the residue. *: point of attachment. C20 diacid = O=C(O)CCCCCCCCCCCCCCCCCCC(=O)*; C18 diacid = O=C(O)CCCCCCCCCCCCCCCCC(=O)*; C16 diacid = O=C(O)CCCCCCCCCCCCCCC(=O)*; γGlu = O=C(O)[C@H](CCC(=O)[*:2])N[*:1]; AEEA = NCCOCCOCC(=O)O; Aib = CC(C)(N)C(=O)O; Ahx = NCCCCCC(=O)O

B1: Compound 0580 (peptide)
peptide: H[Aib]EGTFTSDVSSYLEEQAARK([AEEA-AEEA-γGlu-C20 diacid])FIAWLVRGGASELSTAALGRLSAELHELATLPRTETGSGSP-NH2
B2: Compound 0577 (peptide)
peptide: H[Aib]EGTFTSDVSK([AEEA-AEEA-γGlu-C16 diacid])YLEEQAARKFIEWLVRGRGEASELSTAALGRLSAELHELATLPRTETGSGSP-NH2
modifications: not fully specified (residue 21)
B3: Compound 0630 (peptide)
peptide: H[Aib]EGTFTSDVSK([Ahx-γGlu-γGlu-C16 diacid])YLEEQAARK([Ahx-γGlu-γGlu-C16 diacid])FIEWLVRGAAEASELSTAALGRLSAELHELATLPRTETGSGSP-NH2
B4: Compound 0564 (peptide)
peptide: H[Aib]EGTFTSDVSK([AEEA-Lys])YLEEQAAREFIAWLVRGRGGGGGEASELSTAALGRLSAELHELATLPRTETGSGSP-NH2
modifications: also: Lys on Ado carries two C16 diacid-gGlu-Ado-Ado groups, on its alpha and epsilon amines
B5: Compound 0057 (peptide)
peptide: H[Aib]EGTFTSDVSSYLEGQAAK([AEEA-AEEA-γGlu-C18 diacid])EFIAWLVRGRGGQEK([AEEA-AEEA-γGlu-C18 diacid])GQEPEASELSTAALGRLSAELHELATLPRTETGSGSP-NH2
B6: Compound 0565 (peptide)
peptide: H[Aib]EGTFTSDVSK([AEEA-AEEA-γGlu-C20 diacid])YLEEQAAREFIAWLVRGRGGGGGEASELSTAALGRLSAELHELATLPRTETGSGSP-NH2
B7: Compound 0576 (peptide)
peptide: H[Aib]EGTFTSDVSK([AEEA-AEEA-γGlu-C16 diacid])YLEEQAARKFIEWLVRGRGEGGGGGASELSTAALGRLSAELHELATLPRTETGSGSP-NH2
modifications: not fully specified (residue 21)
B8: Compound 0578 (peptide)
peptide: H[Aib]EGTFTSDVSK([AEEA-AEEA-γGlu-C16 diacid])YLEEQAARKFIAWLVRGRQEASELSTAALGRLSAELHELATLPRTETGSGSP-NH2
modifications: not fully specified (residue 21)
B9: Compound 0581 (peptide)
peptide: H[Aib]EGTFTSDVSSYLEEQAARK([AEEA-AEEA-γGlu-C20 diacid])FIEWLVRGASELSTAALGRLSAELHELATLPRTETGSGSP-NH2
B10: Compound 0629 (peptide)
peptide: H[Aib]EGTFTSDVSK([AEEA-AEEA-γGlu-C16 diacid])YLEEQAARKFIEWLVRGAAEASELSTAALGRLSAELHELATLPRTETGSGSP-NH2
modifications: not fully specified (residue 21)
B11: Compound 0575 (peptide)
peptide: H[Aib]EGTFTSDVSK([AEEA-AEEA-γGlu-C16 diacid])YLEEQAARK([AEEA-AEEA-γGlu-C16 diacid])FIAWLVRGRQEGGGGGASELSTAALGRLSAELHELATLPRTETGSGSP-NH2

target: T1, human amylin-3 (a) receptor (human, UniProt P30988 25-474; O60896 24-148); assay: cell-based or functional assay
T1 sequence (looked up) 1: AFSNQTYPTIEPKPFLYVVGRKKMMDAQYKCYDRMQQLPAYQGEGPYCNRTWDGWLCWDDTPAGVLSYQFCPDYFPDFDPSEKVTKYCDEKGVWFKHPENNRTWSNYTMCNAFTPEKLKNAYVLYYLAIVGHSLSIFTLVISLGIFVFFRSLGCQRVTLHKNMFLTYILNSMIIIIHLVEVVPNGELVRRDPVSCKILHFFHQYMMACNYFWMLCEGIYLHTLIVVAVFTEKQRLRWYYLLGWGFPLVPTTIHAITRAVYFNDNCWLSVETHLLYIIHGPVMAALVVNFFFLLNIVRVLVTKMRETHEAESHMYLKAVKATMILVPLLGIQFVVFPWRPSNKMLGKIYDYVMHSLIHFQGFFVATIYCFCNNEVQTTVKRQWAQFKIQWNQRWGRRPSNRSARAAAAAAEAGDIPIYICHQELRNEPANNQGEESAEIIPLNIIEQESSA
T1 sequence (looked up) 2: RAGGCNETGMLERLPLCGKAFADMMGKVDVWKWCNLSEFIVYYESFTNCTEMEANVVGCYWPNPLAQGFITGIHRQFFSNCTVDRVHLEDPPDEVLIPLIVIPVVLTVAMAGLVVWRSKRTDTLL

First: B1
Second: B2
The “Human AmyR3 potency [EC50 (pM)]” value of the first is lower: 9.3 pM for the first, 19.1 pM for the second.

Compared with B3, B4 is lower in “Human AmyR3 potency [EC50 (pM)]” value: 110 pM for the first, 14.5 pM for the second.

First: B5
Second: B6
The “Human AmyR3 potency [EC50 (pM)]” value of the first is higher: 165 pM for the first, 6.2 pM for the second.

Going from B7 to B8, the “Human AmyR3 potency [EC50 (pM)]” value rises from 10.1 pM to 26.9 pM.

Compared with B9, B10 is higher in “Human AmyR3 potency [EC50 (pM)]” value: 26.4 pM for the first, 97.5 pM for the second.

In the case of B11, the “Human AmyR3 potency [EC50 (pM)]” value is reported as 8.3 pM.

target: human GLP-1 receptor (human, UniProt P43220 24-463); assay: cell-based or functional assay

Compared with B1, B2 is lower in “Human GLP-1R potency [EC50 (pM)]” value: 7.4 pM for the first, 5.6 pM for the second.

Going from B3 to B4, the “Human GLP-1R potency [EC50 (pM)]” value rises from 7.1 pM to 24.5 pM.

First: B5
Second: B6
The “Human GLP-1R potency [EC50 (pM)]” value of the first is higher: 59 pM for the first, 6.4 pM for the second.

First: B7
Second: B8
The “Human GLP-1R potency [EC50 (pM)]” value of the first is higher: 2.9 pM for the first, 2.5 pM for the second.

Going from B9 to B10, the “Human GLP-1R potency [EC50 (pM)]” value falls from 17 pM to 7.9 pM.

In the case of B11, the “Human GLP-1R potency [EC50 (pM)]” value is reported as 5.6 pM.
